This assay has as its target human constitutively active c-Src, adenovirus-expressed (human) (UniProt P12931). As to the kind of experiment: co-IP.

B1: phospho-mimetic S116D eNOS mutant, adenovirus-expressed (enzyme)
chain: MGNLKSVGQEPGPPCGLGLGLGLGLCGKQGPASPAPEPSRAPAPATPHAPDHSPAPNSPTLTRPPEGPKFPRVKNWELGSITYDTLCAQSQQDGPCTPRCCLGSLVLPRKLQTRPDPGPPPAEQLLSQARDFINQYYSSIKRSGSQAHEERLQEVEAEVASTGTYHLRESELVFGAKQAWRNAPRCVGRIQWGKLQVFDARDCSSAQEMFTYICNHIKYATNRGNLRSAITVFPQRAPGRGDFRIWNSQLVRYAGYRQQDGSVRGDPANVEITELCIQHGWTPGNGRFDVLPLLLQAPDEAPELFVLPPELVLEVPLEHPTLEWFAALGLRWYALPAVSNMLLEIGGLEFSAAPFSGWYMSTEIGTRNLCDPHRYNILEDVAVCMDLDTRTTSSLWKDKAAVEINLAVLHSFQLAKVTIVDHHAATVSFMKHLDNEQKARGGCPADWAWIVPPISGSLTPVFHQEMVNYILSPAFRYQPDPWKGSATKGAGITRKKTFKEVANAVKISASLMGTLMAKRVKATILYASETGRAQSYAQQLGRLFRKAFDPRVLCMDEYDVVSLEHEALVLVVTSTFGNGDPPENGESFAAALMEMSGPYNSSPRPEQHKSYKIRFNSVSCSDPLVSSWRRKRKESSNTDSAGALGTLRFCVFGLGSRAYPHFCAFARAVDTRLEELGGERLLQLGQGDELCGQEEAFRGWAKAAFQASCETFCVGEEAKAAAQDIFSPKRSWKRQRYRLSTQAEGLQLLPGLIHVHRRKMFQATVLSVENLQSSKSTRATILVRLDTAGQEGLQYQPGDHIGICPPNRPGLVEALLSRVEDPPPPTESVAVEQLEKGSPGGPPPSWVRDPRLPPCTLRQALTFFLDITSPPSPRLLRLLSTLAEEPSEQQELETLSQDPRRYEEWKWFRCPTLLEVLEQFPSVALPAPLLLTQLPLLQPRYYSVSSAPNAHPGEVHLTVAVLAYRTQDGLGPLHYGVCSTWLSQLKTGDPVPCFIRGAPSFRLPPDPYVPCILVGPGTGIAPFRGFWQERLHDIESKGLQPAPMTLVFGCRCSQLDHLYRDEVQDAQERGVFGRVLTAFSREPDSPKTYVQDILRTELAAEVHRVLCLERGHMFVCGDVTMATSVLQTVQRILATEGDMELDEAGDVIGVLRDQQRYHEDIFGLTLRTQEVTSRIRTQSFSLQERHLRGAVPWAFDPPGPDTPGP
B1 returned a percent reduction of co-immunoprecipitation against WT eNOS of 88%.

For the origin of these results see PMC3824616.
